Reference: PMC7040160, “Indium-111-labeled CD166-targeted peptide as a potential nuclear imaging agent for detecting colorectal cancer stem-like cells in a xenograft mouse model” (EJNMMI Research, 2020)
Values belong to the molecule of their own block, whether it stands above or below them. Residues, ends and D or L forms follow the SMILES beside them. No end group written: not given here. *: point of attachment. X1 = O=C(O)CN(CCN(CCN(CC(=O)O)CC(=O)O)C(CCCCNC(=O)CCCN1C(=O)CC(*)C1=O)C(=O)O)CC(=O)O

Experiments:
[1] = tested on: CD166^+HCT15 xenograft mice; settings: mouse, in vivo
Description: The male BALB/c nude mice were subcutaneously inoculating CD166^+HCT15 cells (1 × 10^6 cells) for 2 weeks, and then the ^111In-DTPA, ^111In-DTPA-G18C, ^111In-DTPA-CD166tp-C, and ^111In-DTPA-CD166tp-G18C (740 MBq/kg/mouse) were intravenously injected into mice. The imaging of CD166 in mice at 2, 4, 24, and 48 h were detected by a nano single-photon emission computed tomography/computed tomography (nanoSPECT/CT; Mediso Medical Imaging Systems, Budapest, Hungary). For competitive study, the CD166^+HCT15-derived xenograft mice were pre-treated with CD166tp-G18C (0, 10, and 50 mg/kg) for 6 h. Every mouse then received 740 MBq/kg ^111In-DTPA-CD166tp-G18C via intravenous injection for 24 and 48 h. The competitive CD166 images were observed by a nanoSPECT/CT.

in vivo = settings: mouse, iv, 148 MBq/kg/mouse, total radioactivity
Description: (§1) CD166^+HCT15 cells were subcutaneously injected into the right hindlimb of mice for establishing CD166-expressed CRC xenograft mouse model. After tumor formation, the ^111In-DTPA, ^111In-DTPA-G18C, ^111In-DTPA-CD166tp-C, and ^111In-DTPA-CD166tp-G18C (148 MBq/kg/mouse) were intravenously injected into mice […]. After 2, 4, 24, and 48 h post-injection, mice were sacrificed and collected blood and organs including the brain, heart, lung, liver, spleen, kidneys, stomach, small intestine, colon, muscle, and tumor. The organ weight was measured. The radioactivity in blood and organs was determined by a 1470 WIZARD gamma counter (PerkinElmer). The percentage of injected dose per gram of tissue (%ID/g) was calculated.

[2] = tested on: CD166^+HCT15 xenograft mice; test: in vivo; settings: mouse
Description: as §1

CD166^+HCT15 cells [3] = test: CD166tp-G18C binding assay by flow cytometry; assay type: cell-based, human; settings: Fig. 5a
Description: For CD166 detection on the cellular surface, the optimized density (1 × 10^6 cell) of CD166^+HCT15 and CD166^−HCT15 cells were added with 1 mL PBS with 20 μg IgG-FITC and FITC-conjugated CD166 antibody (CD166ab-FITC) for 1 h. For the CD166tp-G18C binding assay, CD166^+HCT15 and CD166^−HCT15 cells were added with 1 mL PBS with 20 μg CD166tp-G18C-FITC and G18C-FITC for 1 h. In competitive group, CD166^+HCT15 cells were pre-treated with CD166tp-G18C (20 μg/mL) for 1 h and then added 20 μg/mL CD166tp-G18C-FITC for 1 h. After PBS washing, cells were collected for flow cytometric analysis using a FACSCalibur Flow Cytometer (BD Bioscience, San Diego, CA, USA).

CD166^+HCT15 cells [4] = test: CD166tp-G18C binding assay by immunofluorescence staining; assay type: cell-based, human; settings: fixed, 20 μg/mL, 2 h, Fig. 5b
Description: (§2) The CD166tp-G18C binding assay was determined by immunofluorescence staining in both CD166^−HCT15 and CD166^+HCT15 cells. Briefly, cells (1 × 10^4 cells) were seeded in 4-well Millicell EZ slides (Merck Millipore, Germany) with culture medium at 37 °C and 5% CO2 for 16 h. Cells were fixed using 4% paraformaldehyde for 30 min at 37 °C. The fixed-cells were then incubated in the SuperBlock Blocking Buffers (Thermo Fisher Scientific, USA) for 30 min. Cells were incubated with CD166tp-G18C-FITC (20 μg/mL) for 2 h. DAPI was used to stain the cell nuclei at a concentration of 0.2 μg DAPI/mL PBS for 10 min. The images were captured by a fluorescence microscope (BX53, Olympus, Japan) coupled to a CCD camera. Digital images were analyzed by an Image-Pro Plus software (Media Cybernetics, USA).

CD166^−HCT15 cells = test: as above; assay type: cell-based, human; settings: fixed, 20 μg/mL, 2 h, Fig. 5b
Description: as §2

CD166 protein = molecular target: T1, CD166 protein (Homo sapiens, UniProt Q13740); test: CD166tp-G18C and CD166 protein interaction assay (immunoprecipitation with CD166 antibody); assay type: binding; design: endogenous in cells; host or cells: HCT15 cells (sorted CD166+ and CD166- populations); settings: Fig. 5c
T1 sequence (Q13740 28-583): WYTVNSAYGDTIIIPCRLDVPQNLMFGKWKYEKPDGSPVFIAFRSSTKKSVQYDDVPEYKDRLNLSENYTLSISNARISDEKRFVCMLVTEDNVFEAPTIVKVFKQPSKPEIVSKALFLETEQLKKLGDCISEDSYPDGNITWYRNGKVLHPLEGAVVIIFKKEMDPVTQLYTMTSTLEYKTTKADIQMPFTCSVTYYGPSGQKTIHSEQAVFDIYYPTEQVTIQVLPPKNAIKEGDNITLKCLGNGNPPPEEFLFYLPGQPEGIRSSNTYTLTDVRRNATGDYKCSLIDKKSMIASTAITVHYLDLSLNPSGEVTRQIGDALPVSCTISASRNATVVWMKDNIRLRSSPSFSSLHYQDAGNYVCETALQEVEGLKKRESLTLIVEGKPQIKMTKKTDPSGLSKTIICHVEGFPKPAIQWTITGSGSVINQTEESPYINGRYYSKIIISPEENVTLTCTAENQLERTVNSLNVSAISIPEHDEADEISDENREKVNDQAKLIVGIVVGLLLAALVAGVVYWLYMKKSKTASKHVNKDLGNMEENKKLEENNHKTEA
Description: HCT15 cells (1 × 10^6 cells) were incubated with 20 μg/mL CD166tp-G18C-FITC in the presence or absence of 20 μg/mL CD166tp-G18C at 4 °C for 1 h. After treating immunoblotting lysis buffer with protease inhibitors cocktail (Hycell International, Taipei, Taiwan), the mixture solution was centrifuged at 14,000 rpm (4 °C) for 10 min. The supernatant was treated with or without 2 μg/mL biotinylated-CD166 antibody (Novus Biologicals, Littleton, CO, USA)-conjugated streptavidin agarose beads (Sigma-Aldrich) at 4 °C overnight. In the competitive group, cells were pre-treated with CD166tp-G18C (20 μg/mL) for 1 h at 4 °C. The fluorescence of immunoprecipitates was detected by an ELISA reader (Perkin Elmer).

[5] = tested on: CD166^+HCT15 and CD166^−HCT15 cells; test: Cell viability assay (CCK-8), cell resistance; settings: 1, 5 and 50 μM, 24 h; absorbance 450 nm; Fig. 3b; n ≥ 5

Molecule: CC(C)C[C@H](NC(=O)[C@H](CC(N)=O)NC(=O)[C@H](CO)NC(=O)[C@H](CC(N)=O)NC(=O)CNC(=O)[C@H](CCC(=O)O)NC(=O)[C@H](CO)NC(=O)[C@@H](N)CC(=O)O)C(=O)N[C@@H](CS)C(=O)N[C@@H](CO)C(=O)N[C@@H](CCC(N)=O)C(=O)N[C@@H](CO)C(=O)NCC(=O)NCC(=O)NCC(=O)NCC(=O)NCC(=O)NCC(=O)NCC(=O)NCC(=O)NCC(=O)NCC(=O)NCC(=O)NCC(=O)NCC(=O)NCC(=O)NCC(=O)NCC(=O)NCC(=O)NCC(=O)N[C@@H](CSC1CC(=O)N(CCCC(=O)NCCCCC(C(=O)O)N(CCN(CC(=O)O)CC(=O)O)CCN(CC(=O)O)CC(=O)O)C1=O)C(=O)O (some centres unmarked) [^111In-DTPA-CD166tp-G18C, metal not drawn] (H-DSEGNSNLCSQSGGGGGGGGGGGGGGGGGGC(X1)-OH; N-terminus and C-terminus assumed)
difference of counts between background and tumor area (nanoSPECT/CT) [1]: about 8 times
tissue to tissue ratio at 48 h (in vivo): 48.9 ± 5.03
tissue uptake at 4 h (in vivo): 10.1 ± 1.26 %ID/g
tissue uptake at 24 h (in vivo): 11.1 ± 2.2 %ID/g
ratio of tumor-to-blood (T/B) [2]: remarkably increased
ratio of tumor-to-muscle (T/M) [2]: remarkably increased
tumor-to-blood ratios [2]: 5.94 ± 0.51

binding via CD166 protein (fluorescence of CD166 antibody immunoprecipitates) (CD166 protein; CD166^+HCT15 cells, 20 μg/mL, 1 h, 4 °C, biotinylated-CD166 antibody 2 μg/mL, n ≥ 3): could bind
Molecule: CD166tp-G18C-FITC: FITC-labeled CD166tp-G18C (DSEGNSNLCSQSGGGGGGGGGGGGGGGGGGC; cysteine pairing not given here; also: FITC label, site not given here)
fluorescence of CD166tp-G18C-FITC on cells (flow cytometry) (CD166^+HCT15 cells [3]; CD166^+HCT15 cells, 20 μg/mL, 1 h, n ≥ 3): significantly increased
binding ability by immunofluorescence (CD166^+HCT15 cells [4]): increased
binding ability by immunofluorescence (CD166^−HCT15 cells): but not in CD166^−HCT15 cells

Molecule: COc1cccc2c1C(=O)c1c(O)c3c(c(O)c1C2=O)C[C@@](O)(C(=O)CO)C[C@@H]3O[C@H]1C[C@H](N)[C@H](O)[C@H](C)O1 [doxorubicin]
resistance of CD166^+HCT15 cells as compared to CD166^−HCT15 cells (cell viability, CCK-8) [5]: significant resistance

competition: effect of pretreatment on CD166tp-G18C-FITC binding (immunoprecipitation assay) (CD166 protein; pre-treated with 20 μg/mL for 1 h at 4 °C): could be inhibited
Molecule: DSEGNSNLCSQSGGGGGGGGGGGGGGGGGGC [CD166tp-G18C, Glycine18-Cysteine-linked CD166-targeted peptide]
competition: effect of pretreatment on binding efficiency of CD166tp-G18C-FITC (flow cytometry) (CD166^+HCT15 cells [3]; CD166^+HCT15 cells pre-treated with 20 μg/mL for 1 h, then 20 μg/mL CD166tp-G18C-FITC 1 h): markedly decreased the binding efficiency of CD166tp-G18C-FITC
